Data taken from IntAct's records for PubMed 12813456.

B1: Protein E7 (Human papillomavirus type 16), P03129 (parent)
chain: MHGDTPTLHEYMLDLQPETTDLYCYEQLNDSSEEEDEIDGPAGQAEPDRAHYNIVTFCCKCDSTLRLCVQSTHVDIRTLEDLLMGTLGIVCPICSQKP

Variants of: B1
Details: with kat2b_human KAT2B

Variant | effect of a mutation on the interaction
L67A | decreasing interaction strength
